Data on 40 molecules can be found in patent US20150344570A1 (published 2015).

To fix the notation:
T1: FcγRIIb extracellular domain with C-terminal His tag (human, UniProt P31994 43-217)
T1 construct: extracellular domain; also called FcgRIIb; 2b; not shown: His tag at the C terminus
T1 sequence (looked up): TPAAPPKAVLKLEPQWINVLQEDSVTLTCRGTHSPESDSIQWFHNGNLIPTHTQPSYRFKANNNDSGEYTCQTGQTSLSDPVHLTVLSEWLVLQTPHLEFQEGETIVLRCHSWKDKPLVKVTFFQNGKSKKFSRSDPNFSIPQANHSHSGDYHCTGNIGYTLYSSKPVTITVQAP

B1: GpH7-B3 variant T335_10E/GpL16-k0 (antibody, human IgG1, kappa)
heavy: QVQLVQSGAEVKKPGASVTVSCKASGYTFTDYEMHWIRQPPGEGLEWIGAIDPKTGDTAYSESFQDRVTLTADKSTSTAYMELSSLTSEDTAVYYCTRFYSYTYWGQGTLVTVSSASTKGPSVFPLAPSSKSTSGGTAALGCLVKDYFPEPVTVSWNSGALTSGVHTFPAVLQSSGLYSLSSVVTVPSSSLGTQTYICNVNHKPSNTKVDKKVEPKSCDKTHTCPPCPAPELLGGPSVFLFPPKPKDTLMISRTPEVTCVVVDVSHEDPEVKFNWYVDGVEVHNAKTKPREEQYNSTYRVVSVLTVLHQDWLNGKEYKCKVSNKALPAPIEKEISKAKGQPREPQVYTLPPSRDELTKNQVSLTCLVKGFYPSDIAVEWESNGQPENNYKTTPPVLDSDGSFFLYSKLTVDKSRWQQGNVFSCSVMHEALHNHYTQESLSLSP
light: DIVMTQSPLSLPVTPGEPASISCQASESLVHSNRNTYLHWYLQKPGQSPQLLIYKVSNRFSGVPDRFSGSGSGTDFTLKISRVEAEDVGVYYCSQNTHVPPTFGQGTKVEIERTVAAPSVFIFPPSDEQLKSGTASVVCLLNNFYPREAKVQWKVDNALQSGNSQESVTEQDSKDSTYSLSSTLTLSKADYEKHKVYACEVTHQGLSSPVTKSFNRGEC
notes: also called Ho Ab T335_10E
B2: GpH7-B3 variant V266_06M/GpL16-k0 (antibody, human IgG1, kappa)
heavy: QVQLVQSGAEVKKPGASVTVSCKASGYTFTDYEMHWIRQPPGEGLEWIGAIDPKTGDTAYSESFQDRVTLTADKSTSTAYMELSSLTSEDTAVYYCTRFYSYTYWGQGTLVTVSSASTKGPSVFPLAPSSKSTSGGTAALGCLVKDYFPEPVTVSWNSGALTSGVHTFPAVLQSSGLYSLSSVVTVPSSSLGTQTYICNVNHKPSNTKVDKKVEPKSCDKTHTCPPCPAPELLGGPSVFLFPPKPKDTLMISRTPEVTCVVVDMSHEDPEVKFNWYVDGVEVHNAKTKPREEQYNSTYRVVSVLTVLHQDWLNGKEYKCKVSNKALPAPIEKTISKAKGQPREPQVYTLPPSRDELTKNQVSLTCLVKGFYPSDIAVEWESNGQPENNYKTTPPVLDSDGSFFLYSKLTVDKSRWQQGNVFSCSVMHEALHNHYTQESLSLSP
light: B1 light
notes: also called Ho Ab V266_06M
B3: GpH7-B3 variant T335_15Y/GpL16-k0 (antibody, human IgG1, kappa)
heavy: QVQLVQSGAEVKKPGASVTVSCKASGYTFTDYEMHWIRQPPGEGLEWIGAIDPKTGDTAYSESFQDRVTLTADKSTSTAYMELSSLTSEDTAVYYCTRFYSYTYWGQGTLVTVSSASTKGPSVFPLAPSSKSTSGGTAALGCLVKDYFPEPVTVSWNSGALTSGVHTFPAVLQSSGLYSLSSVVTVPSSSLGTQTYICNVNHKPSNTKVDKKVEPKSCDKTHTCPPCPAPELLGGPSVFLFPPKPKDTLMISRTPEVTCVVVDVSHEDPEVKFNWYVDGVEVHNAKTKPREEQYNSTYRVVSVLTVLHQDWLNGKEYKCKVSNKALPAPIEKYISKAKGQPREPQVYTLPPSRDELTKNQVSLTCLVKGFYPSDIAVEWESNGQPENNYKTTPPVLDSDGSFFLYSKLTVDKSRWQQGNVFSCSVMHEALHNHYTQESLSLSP
light: B1 light
notes: also called Ho Ab T335_15Y
B4: GpH7-B3 variant Y296_20W/GpL16-k0 (antibody, human IgG1, kappa)
heavy: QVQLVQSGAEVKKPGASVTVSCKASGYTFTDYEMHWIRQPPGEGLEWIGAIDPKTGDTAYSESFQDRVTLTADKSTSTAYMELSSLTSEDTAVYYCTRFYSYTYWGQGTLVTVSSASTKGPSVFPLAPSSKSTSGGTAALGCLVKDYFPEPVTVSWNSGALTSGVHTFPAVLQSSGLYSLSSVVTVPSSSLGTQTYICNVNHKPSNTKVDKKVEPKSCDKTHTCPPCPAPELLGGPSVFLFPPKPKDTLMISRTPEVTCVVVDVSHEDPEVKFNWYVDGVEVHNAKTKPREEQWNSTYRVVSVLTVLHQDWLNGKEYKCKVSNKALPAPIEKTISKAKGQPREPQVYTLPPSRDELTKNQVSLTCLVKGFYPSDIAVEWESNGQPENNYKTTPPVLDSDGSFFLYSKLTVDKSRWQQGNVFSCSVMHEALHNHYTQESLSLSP
light: B1 light
notes: also called Ho Ab Y296_20W
B5: GpH7-A5/GpH7-B3 variant K326_07I/GpL16-k0 (antibody, human IgG1, kappa)
heavy 1: not shown
heavy 2: not shown
light: B1 light
notes: also called He Ab K326_07I
B6: GpH7-A5/GpH7-B3 variant I332_14T/GpL16-k0 (antibody, human IgG1, kappa)
heavy 1: not shown
heavy 2: not shown
light: B1 light
notes: also called He Ab I332_14T
B7: GpH7-A5/GpH7-B3 variant K334_04F/GpL16-k0 (antibody, human IgG1, kappa)
heavy 1: not shown
heavy 2: not shown
light: B1 light
notes: also called He Ab K334_04F
B8: GpH7-A5/GpH7-B3 variant I332_04F/GpL16-k0 (antibody, human IgG1, kappa)
heavy 1: not shown
heavy 2: not shown
light: B1 light
notes: also called He Ab I332_04F
B9: GpH7-A5/GpH7-B3 variant H268_09D/GpL16-k0 (antibody, human IgG1, kappa)
heavy 1: not shown
heavy 2: not shown
light: B1 light
notes: also called He Ab H268_09D
B10: GpH7-A5/GpH7-B3 variant K326_09D/GpL16-k0 (antibody, human IgG1, kappa)
heavy 1: not shown
heavy 2: not shown
light: B1 light
notes: also called He Ab K326_09D
B11: GpH7-A5/GpH7-B3 variant I332_15Y/GpL16-k0 (antibody, human IgG1, kappa)
heavy 1: not shown
heavy 2: not shown
light: B1 light
notes: also called He Ab I332_15Y
B12: GpH7-A5/GpH7-B3 variant K326_08L/GpL16-k0 (antibody, human IgG1, kappa)
heavy 1: not shown
heavy 2: not shown
light: B1 light
notes: also called He Ab K326_08L
B13: GpH7-A5/GpH7-B3 variant H268_18N/GpL16-k0 (antibody, human IgG1, kappa)
heavy 1: not shown
heavy 2: not shown
light: B1 light
notes: also called He Ab H268_18N
B14: GpH7-A5/GpH7-B3 variant H268_01G/GpL16-k0 (antibody, human IgG1, kappa)
heavy 1: not shown
heavy 2: not shown
light: B1 light
notes: also called He Ab H268_01G
B15: GpH7-A5/GpH7-B3 variant K326_19Q/GpL16-k0 (antibody, human IgG1, kappa)
heavy 1: not shown
heavy 2: not shown
light: B1 light
notes: also called He Ab K326_19Q
B16: GpH7-A5/GpH7-B3 variant K326_10E/GpL16-k0 (antibody, human IgG1, kappa)
heavy 1: not shown
heavy 2: not shown
light: B1 light
notes: also called He Ab K326_10E
B17: GpH7-A5/GpH7-B3 variant A330_01G/GpL16-k0 (antibody, human IgG1, kappa)
heavy 1: not shown
heavy 2: not shown
light: B1 light
notes: also called He Ab A330_01G
B18: GpH7-A5/GpH7-B3 variant G236_09D/GpL16-k0 (antibody, human IgG1, kappa)
heavy 1: not shown
heavy 2: not shown
light: B1 light
notes: also called He Ab G236_09D
B19: GpH7-A5/GpH7-B3 variant G237_04F/GpL16-k0 (antibody, human IgG1, kappa)
heavy 1: not shown
heavy 2: not shown
light: B1 light
notes: also called He Ab G237_04F
B20: GpH7-A5/GpH7-B3 variant H268_13S/GpL16-k0 (antibody, human IgG1, kappa)
heavy 1: not shown
heavy 2: not shown
light: B1 light
notes: also called He Ab H268_13S
B21: GpH7-A5/GpH7-B3 variant K326_04F/GpL16-k0 (antibody, human IgG1, kappa)
heavy 1: not shown
heavy 2: not shown
light: B1 light
notes: also called He Ab K326_04F
B22: GpH7-A5/GpH7-B3 variant K326_14T/GpL16-k0 (antibody, human IgG1, kappa)
heavy 1: not shown
heavy 2: not shown
light: B1 light
notes: also called He Ab K326_14T
B23: GpH7-A5/GpH7-B3 variant K326_06M/GpL16-k0 (antibody, human IgG1, kappa)
heavy 1: not shown
heavy 2: not shown
light: B1 light
notes: also called He Ab K326_06M
B24: GpH7-A5/GpH7-B3 variant K334_02A/GpL16-k0 (antibody, human IgG1, kappa)
heavy 1: not shown
heavy 2: not shown
light: B1 light
notes: also called He Ab K334_02A
B25: GpH7-A5/GpH7-B3 variant I332_09D/GpL16-k0 (antibody, human IgG1, kappa)
heavy 1: not shown
heavy 2: not shown
light: B1 light
notes: also called He Ab I332_09D
B26: GpH7-A5/GpH7-B3 variant G237_20W/GpL16-k0 (antibody, human IgG1, kappa)
heavy 1: not shown
heavy 2: not shown
light: B1 light
notes: also called He Ab G237_20W
B27: GpH7-A5/GpH7-B3 variant K334_05P/GpL16-k0 (antibody, human IgG1, kappa)
heavy 1: not shown
heavy 2: not shown
light: B1 light
notes: also called He Ab K334_05P
B28: GpH7-A5/GpH7-B3 variant K326_20W/GpL16-k0 (antibody, human IgG1, kappa)
heavy 1: not shown
heavy 2: not shown
light: B1 light
notes: also called He Ab K326_20W
B29: GpH7-A5/GpH7-B3 variant I332_06M/GpL16-k0 (antibody, human IgG1, kappa)
heavy 1: not shown
heavy 2: not shown
light: B1 light
notes: also called He Ab I332_06M
B30: GpH7-A5/GpH7-B3 variant K326_16H/GpL16-k0 (antibody, human IgG1, kappa)
heavy 1: not shown
heavy 2: not shown
light: B1 light
notes: also called He Ab K326_16H
B31: GpH7-A5/GpH7-B3 variant K326_03V/GpL16-k0 (antibody, human IgG1, kappa)
heavy 1: not shown
heavy 2: not shown
light: B1 light
notes: also called He Ab K326_03V
B32: GpH7-A5/GpH7-B3 variant K326_15Y/GpL16-k0 (antibody, human IgG1, kappa)
heavy 1: not shown
heavy 2: not shown
light: B1 light
notes: also called He Ab K326_15Y
B33: GpH7-A5/GpH7-B3 variant I332_10E/GpL16-k0 (antibody, human IgG1, kappa)
heavy 1: not shown
heavy 2: not shown
light: B1 light
notes: also called He Ab I332_10E
B34: GpH7-A5/GpH7-B3 variant G236_10E/GpL16-k0 (antibody, human IgG1, kappa)
heavy 1: not shown
heavy 2: not shown
light: B1 light
notes: also called He Ab G236_10E
B35: GpH7-A5/GpH7-B3 variant K334_07I/GpL16-k0 (antibody, human IgG1, kappa)
heavy 1: not shown
heavy 2: not shown
light: B1 light
notes: also called He Ab K334_07I
B36: GpH7-A5/GpH7-B3 variant A327_09D/GpL16-k0 (antibody, human IgG1, kappa)
heavy 1: not shown
heavy 2: not shown
light: B1 light
notes: also called He Ab A327_09D
B37: GpH7-A5/GpH7-B3 variant A327_10E/GpL16-k0 (antibody, human IgG1, kappa)
heavy 1: not shown
heavy 2: not shown
light: B1 light
notes: also called He Ab A327_10E
B38: GpH7-A5/GpH7-B3 variant K334_03V/GpL16-k0 (antibody, human IgG1, kappa)
heavy 1: not shown
heavy 2: not shown
light: B1 light
notes: also called He Ab K334_03V
B39: GpH7-A5/GpH7-B3 variant I336_08L/GpL16-k0 (antibody, human IgG1, kappa)
heavy 1: not shown
heavy 2: not shown
light: B1 light
notes: also called He Ab I336_08L
B40: GpH7-A5/GpH7-B3 variant H268_10E/GpL16-k0 (antibody, human IgG1, kappa)
heavy 1: not shown
heavy 2: not shown
light: B1 light
notes: also called He Ab H268_10E

The target in one experiment is T1, FcγRIIb extracellular domain with …. As to the kind of experiment: SPR, relative binding, HoCon Ab = 100. Here is the method:
(§1) Analysis of interaction between objective antibody and the FcγR was carried out using Biacore T100 (GE Healthcare). HBS-EP+ (GE Healthcare) was used as the running buffer, and the measurement temperature was set to 25° C. Chips produced by immobilizing the antigen peptide by the amine coupling method to a Series S Sencor Chip CM5 (GE Healthcare), or alternatively, chips produced by allowing preliminarily biotinylated antigen peptides to interact with and immobilize onto a Series S Sensor Chip SA (certified) (GE Healthcare) were used. Antibodies of interest were captured onto an antigen peptide-immobilized chip, and allowed to interact to each FcγR diluted with running buffer. To regenerate and repeatedly use the chip, the antibodies captured on the chip were washed off by reacting 10 mM glycine-HCl, pH 1.5.
Consider B1, for which the Ho/Con_2b was 108 % of control.
As to B2, the Ho/Con_2b was 231 % of control.
Turning to B3, the Ho/Con_2b is 104 % of control.
Take B4: the Ho/Con_2b is 103 % of control.

The next experiment shares this target. As to the kind of experiment: SPR, relative binding, HeCon Ab = 100. Here is the method: as §1
Take B5: the He/Con_2b was 199 % of control.
On the same count and under the same terms, then B6, with 106 % of control; and B7, with 111 % of control; and B8, with 104 % of control.
In the case of B9, the He/Con_2b is 239 % of control.
As for B10, the He/Con_2b was 193 % of control.
In the case of B11, the He/Con_2b is 101 % of control.
On to B12, for which the He/Con_2b was 177 % of control.
The same measure, in the same setting: next, B13: 156 % of control; B14: 144 % of control; B15: 139 % of control.
For B16, the He/Con_2b was 200 % of control.
As for B17, the He/Con_2b is 104 % of control.
As for B18, the He/Con_2b is 167 % of control.
For B19, the He/Con_2b was 149 % of control.
For B20, the He/Con_2b is 160 % of control.
In the case of B21, the He/Con_2b was 155 % of control.
Same read-out and setting: then B22, with 150 % of control; and B23, with 165 % of control.
On to B24, for which the He/Con_2b is 108 % of control.
With B25, the He/Con_2b is 147 % of control.
For the molecule B26, the He/Con_2b was 193 % of control.
On to B27, for which the He/Con_2b is 105 % of control.
For the molecule B28, the He/Con_2b was 148 % of control.
For B29, the He/Con_2b was 105 % of control.
Consider B30, for which the He/Con_2b was 119 % of control.
Regarding B31, the He/Con_2b was 175 % of control.
On to B32, for which the He/Con_2b is 159 % of control.
Take B33: the He/Con_2b was 142 % of control.
As for B34, the He/Con_2b is 110 % of control.
For B35, the He/Con_2b was 119 % of control.
In the case of B36, the He/Con_2b is 172 % of control.
B37: the He/Con_2b was 140 % of control.
For the molecule B38, the He/Con_2b was 125 % of control.
On the same count and under the same terms, then B39, with 107 % of control; and B40, with 230 % of control.
